Assays:
female mice (Balb/c) = experiment: Dextran Sodium Sulfate-induced ulcerative colitis model; format: in vivo
Method: The DSS model of colitis mimics some aspects of the human affection such as macrophage infiltration and up regulation of inflammatory cytokines (i.e. TNFα, IL-1p, IL-6) in the colon mucosa.
Ulcerative colitis (UC) was induced in female mice (Balb/c, 20-22 g, Elevage Janvier) by Dextran Sodium Sulfate (DSS 4%) administered in drinking water (oral route). The mice had free access to DSS during 7 days. Body weight was determined daily. The severity of the UC was assessed by a clinical score estimating the constituency of the stool (0=firm, 1=loose, 2=diarrhea) and the presence of blood (0=no blood, 1=occult blood, 2=gross rectal bleeding). Seven days after the induction of the disease, the animals were sacrificed. The length and the weight of the colon were determined and the ratio Weight/Length/100 g body weight was calculated. The spleen weight was also determined. Blood was sampled to determine serum amyloid protein (SAA) using a specific ELISA.
Test substances or vehicle (PBS/0.02% BSA) was administered at days 3, 4, 5 and 6 after the induction of the UC. Enbrel® (1 mg/kg, sc) was used as reference compound. Three studies were performed as per the following table:
In Study 3, the content of IL-1β in the colon was also measured.

LPS-induced TNFα release = experiment: LPS-induced TNFalpha release in mice (Example 5); format: in vivo, C3H mice
Method: C3H mice (Elevage Janvier) (8 week old), received E. Coli's LPS (O111:B4, Sigma, 0.3 mg/kg, ip) 15 minutes after the administration of the test molecules. LPS was solubilized in sterile saline. Dexamethasone (0.1 mg/kg, sc) was used as reference. 24 h later, the animals were sacrificed and the blood was sampled. Plasma levels of TNF-αwere determined in serum using an ELISA kit (R&D). Statistical analysis was determined with an ANOVA test followed by a post-test of Dunnett.

B1: sCD164-Fcm: SEQ ID NO: 18, sCD164 fused to an Fc part mutated in the Fc receptor and C1q binding regions (protein, listed as Homo sapiens)
chain: DKNTTQHPNVTTLAPISNVTSAPVTSLPLVTTPAPETCEGRNSCVSCFNVSVVNTTCFWIECKDESYCSHNSTVSDCQVGNTTDFCSVSTATPVPTANSTAKPTVQPSPSTTSKTVTTSGTTNNTVTPTSQPVRKSTFDAEPKSCDKTHTCPPCPAPEAEGAPSVFLFPPKPKDTLMISRTPEVTCVVVDVSHEDPEVKFNWYVDGVEVHNAKTKPREEQYNSTYRVVSVLTVLHQDWLNGKEYKCKVSNKALPSSIEKTISKAKGQPREPQVYTLPPSREEMTKNQVSLTCLVKGFYPSDIAVEWESNGQPENNYKTTPPVLDSDGSFFLYSKLTVDKSRWQQGNVFSCSVMHEALHNHYTQKSLSLSPGK
Female mice (Balb/c); Study 1, 1 mg/kg, ip, day 6
  clinical score: −23%
Female mice (Balb/c); Study 1, 3 mg/kg, ip
  increase in serum amyloid protein A: −36%
  splenomegaly: −27%
Female mice (Balb/c); Study 1, 3 mg/kg, ip, day 6
  clinical score: −32%
Female mice (Balb/c); Study 1, 3 mg/kg, ip, days 3-6
  colon reduction, length: −21%
Female mice (Balb/c); Study 1, 0.3, 1, 3 mg/kg ip
  body weight loss: not affected
  ratio weight/length (colon): not affected
Female mice (Balb/c); Study 2, 0.3 mg/kg, sc
  colon reduction, length: −13%
  colon reduction, ratio weight/length: −26%
Female mice (Balb/c); Study 2, 1 mg/kg, sc
  colon reduction, length: −18%
  colon reduction, ratio weight/length: −46%
Female mice (Balb/c); Study 2, 1 mg/kg, sc, day 5 to day 7
  body weight loss: reduced significantly
Female mice (Balb/c); Study 2, 1 mg/kg, sc, day 6
  clinical score: −22%
Female mice (Balb/c); Study 2, 3 mg/kg, sc
  increase in serum amyloid protein A: significantly decreased
Female mice (Balb/c); Study 2, 0.3, 1, 3 mg/kg sc
  splenomegaly: not improved
Female mice (Balb/c); Study 3, 0.3 mg/kg, sc
  colon reduction, length: −18%
  colon reduction, ratio weight/length: −19%
Female mice (Balb/c); Study 3, 1 mg/kg, sc
  body weight loss: did not have any effect
  clinical score: tended to improve
  colon reduction, length: −26%
  colon reduction, ratio weight/length: −25%
  content of IL-1β in colon: tended to improve
  serum amyloid A protein: did not have any effect
Female mice (Balb/c); Study 3, 0.3 and 1 mg/kg, sc
  body weight loss: did not have any effect
  clinical score: trended to improve
  serum amyloid A protein: did not have any effect
  splenomegaly: trended to improve
Female mice (Balb/c); Study 3, 0.3 and 1 mg/kg, sc (dose of the single value not stated)
  content of IL-1β in colon: −22%

B2: sCD164: SEQ ID NO: 15, mature full-length CD164 extracellular domain (exons 1 to 6), expressed with C-terminal hexa-histidine tag (protein)
chain: DKNTTQHPNVTTLAPISNVTSAPVTSLPLVTTPAPETCEGRNSCVSCFNVSVVNTTCFWIECKDESYCSHNSTVSDCQVGNTTDFCSVSTATPVPTANSTAKPTVQPSPSTTSKTVTTSGTTNNTVTPTSQPVRKSTFDA
modifications: homo sapiens
LPS-induced TNFα release; 1 mg/kg iv, 15 minutes prior to LPS, P<0.001
  LPS-induced TNFα release: significantly decrease
LPS-induced TNFα release; previous experiments in this model
  TNFα release after LPS induction: decrease TNFα release
